US20070213269

Columns and labels:
[1] = test system: PBS1 (synthetic); experiment: EMSA
[2] = test system: PBS2 (synthetic); experiment: EMSA
[3] = test system: PBS1a (synthetic); experiment: EMSA
[4] = test system: KRAB-PBS1 (synthetic); experiment: cell_activity; settings: with Tat
[5] = test system: KRAB-PBS2 (synthetic); experiment: cell_activity; settings: for activity (fold repression): with Tat
[6] = test system: KRAB-PBS1a (synthetic); experiment: cell_activity; settings: with Tat
[7] = test system: PBS3 (synthetic); experiment: EMSA

Q: Which Kd [1] does the source give for “AAATCTCTAGCAGTGGCG [HIV-1 PBS hairpin, PBS1 site]” here?
A: 0.79 nM

Q: For “GCAGTGGCGCCCGAACAG [HIV-1 PBS hairpin, PBS2 site]”, which Kd [2] is on record?
A: 2.4 nM

Q: “GTGTGGAAAATCTCTAGCAGTGGCG [HIV-1 PBS hairpin, PBS1a site]” was tested. Which Kd [3] did it give?
A: 1.25 nM

Q: With “HIV-1 LTR-luciferase reporter (LTR658-luc)” as the substance, how does the activity (fold repression) ([4]; HeLa) read?
A: 20

Q: And the activity (fold repression) ([5]; HeLa)?
A: 28

Q: What about the activity (fold repression) ([6]; HeLa) of the same substance?
A: 9.5

Q: Which activity (% inhibition of virus production) ([5]; transduced PBMCs, NL4-3 challenge) does the source give for HIV-1 with wild-type B-subtype LTR here?
A: > 90

Q: How did the Kd [7] turn out when “TGGCGCCCGAACAGGGAC [HIV-1 PBS hairpin, PBS3 site]” was run?
A: 0.93 nM

Q: For “chromosomally integrated HIV-1 LTR reporter (TZM-bl)”, which activity (fold repression) ([4]; TZM-bl luciferase) is on record?
A: 7

Q: And the activity (fold repression) ([5]; TZM-bl luciferase)?
A: 20

Q: What about the activity (fold repression) ([6]; TZM-bl luciferase) of the same substance?
A: 15
